Results reported in patent US20240116984A1 (UNIVERSITY OF NOTRE DAME DU LAC, published 2024).
Starred links: 1 amine or outer side, 2 acyl side, 3 side chain; linkers in the order of their positions; H or OH if unused. Non-standard residues stand in square brackets, D forms with d. Primed or numbered codes have the meaning given here. aTyr = Tyr with backbone N-amino (N-aminated amide nitrogen), NN([C@@H](Cc1ccc(O[*:3])cc1)C(=O)[*:2])[*:1]; aIle′ = Ile with backbone N-amino (N-aminated amide nitrogen), CC[C@H](C)[C@@H](C(=O)[*:2])N(N)[*:1]; aVal = Val with backbone N-amino (N-aminated amide nitrogen), CC(C)[C@@H](C(=O)[*:2])N(N)[*:1]; N(NH2)Lys = NCCCC[C@H](NN)C(=O)O

The binders below were run against Human tauP301L (0N4R), recombinant, N-terminal His tag (human, UniProt P10636 2-758) (assay: cell-based or functional assay).
Chain of Human tauP301L (0N4R), recombinant, N-terminal His tag (P10636 other isoform, or with tags, fused parts or gaps): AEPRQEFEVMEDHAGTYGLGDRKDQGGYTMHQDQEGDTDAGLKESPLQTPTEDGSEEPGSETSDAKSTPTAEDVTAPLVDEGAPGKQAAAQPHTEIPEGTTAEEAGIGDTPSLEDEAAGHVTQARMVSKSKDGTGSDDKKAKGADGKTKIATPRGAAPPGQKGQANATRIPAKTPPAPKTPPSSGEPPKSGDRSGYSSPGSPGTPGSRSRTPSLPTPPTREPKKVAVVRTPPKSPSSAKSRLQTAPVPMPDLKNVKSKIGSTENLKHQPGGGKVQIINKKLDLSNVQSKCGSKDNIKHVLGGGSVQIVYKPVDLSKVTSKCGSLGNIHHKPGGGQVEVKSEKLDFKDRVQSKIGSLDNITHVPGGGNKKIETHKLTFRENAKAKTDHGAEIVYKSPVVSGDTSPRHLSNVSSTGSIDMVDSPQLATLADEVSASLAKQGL

Binder	end-point ThT fluorescence of heparin-induced tau aggregation (Tau 10 µM: Inhibitor 20 µM, 48 h) [%]	fibril capping IC50 in cells (mature tauP301L fibrils incubated 36 h with inhibitor, then HEK293 tau-RD(LM)-YFP cells) [µM]
Ac-VQ[aIle′]VYK-NH2 (SMILES CC[C@H](C)[C@@H](C(=O)N[C@H](C(=O)N[C@@H](Cc1ccc(O)cc1)C(=O)N[C@@H](CCCCN)C(N)=O)C(C)C)N(N)C(=O)[C@H](CCC(N)=O)NC(=O)[C@@H](NC(C)=O)C(C)C) [Compound 6, Ac-Val-Gln-aIle-Val-Tyr-Lys-NH2]	≤ 50	
Ac-VQ[aIle′]V[aTyr]K-NH2 (SMILES CC[C@H](C)[C@@H](C(=O)N[C@H](C(=O)N(N)[C@@H](Cc1ccc(O)cc1)C(=O)N[C@@H](CCCCN)C(N)=O)C(C)C)N(N)C(=O)[C@H](CCC(N)=O)NC(=O)[C@@H](NC(C)=O)C(C)C) [Compound 12, Ac-Val-Gln-aIle-Val-aTyr-Lys-NH2]	≤ 50	~5
Ac-[aVal]QIVYK-NH2 (SMILES CC[C@H](C)[C@H](NC(=O)[C@H](CCC(N)=O)NC(=O)[C@H](C(C)C)N(N)C(C)=O)C(=O)N[C@H](C(=O)N[C@@H](Cc1ccc(O)cc1)C(=O)N[C@@H](CCCCN)C(N)=O)C(C)C) [Compound 5, Ac-aVal-Gln-Ile-Val-Tyr-Lys-NH2]	≤ 50	
Ac-[aVal]Q[aIle′]INK-NH2 (SMILES CC[C@H](C)[C@H](NC(=O)[C@H]([C@@H](C)CC)N(N)C(=O)[C@H](CCC(N)=O)NC(=O)[C@H](C(C)C)N(N)C(C)=O)C(=O)N[C@@H](CC(N)=O)C(=O)N[C@@H](CCCCN)C(N)=O) [Compound 4, Ac-aVal-Gln-aIle-Ile-Asn-Lys-NH2]	≤ 50	

The next lines start with the values.

end-point ThT fluorescence of heparin-induced tau aggregation (Tau 10 µM: Inhibitor 20 µM, 48 h) [%]	fibril capping IC50 in cells (mature tauP301L fibrils incubated 36 h with inhibitor, then HEK293 tau-RD(LM)-YFP cells) [µM]	Binder
≤ 50		Ac-VQ[aIle′]INK-NH2 (SMILES CC[C@H](C)[C@H](NC(=O)[C@H]([C@@H](C)CC)N(N)C(=O)[C@H](CCC(N)=O)NC(=O)[C@@H](NC(C)=O)C(C)C)C(=O)N[C@@H](CC(N)=O)C(=O)N[C@@H](CCCCN)C(N)=O) [Compound 2, Ac-Val-Gln-aIle-Ile-Asn-Lys-NH2]
≤ 50	~5	Ac-VQI[aVal]Y[N(NH2)Lys]-NH2 (SMILES CC[C@H](C)[C@H](NC(=O)[C@H](CCC(N)=O)NC(=O)[C@@H](NC(C)=O)C(C)C)C(=O)N(N)[C@H](C(=O)N[C@@H](Cc1ccc(O)cc1)C(=O)N(N)[C@@H](CCCCN)C(N)=O)C(C)C) [Compound 13, Ac-Val-Gln-Ile-aVal-Tyr-aLys-NH2]
